According to patent US20250179143A1, “SYSTEMS AND METHODS FOR CHAPERONE-MEDIATED LIGAND EXCHANGE ON MHC-I AND MHC-RELATED MOLECULES USING CHICKEN TAPBPR” (priority 2022, published 2025):

What was measured:
1G4 TCR [1] = assay: flow cytometry; PE tetramer (1 µg/mL) on human T cells transduced with the 1G4 TCR; tetramer from TAPBPR-catalysed peptide exchange; no percent sign printed
[2] = molecular target: MR1 C262S loaded with acetyl-6-formylpterin (Ac-6-FP) (UniProt Q95460); assay: SPR; MR1 C262S/Ac-6-FP, 10 to 100 µM, over hTAPBPR^RQ-biotin on a streptavidin chip; steady-state fit in the inset
1G4 TCR [3] = assay: flow cytometry; PE tetramer (1 µg/mL) on human T cells transduced with the 1G4 TCR; tetramer from conventional refolding; no percent sign printed
[4] = molecular target: MR1 C262S loaded with acetyl-6-formylpterin (Ac-6-FP) (UniProt Q95460); assay: SPR; MR1 C262S/Ac-6-FP, 10 to 100 µM, over hTAPBPR^KRQ-biotin on a streptavidin chip; steady-state fit in the inset
[5] = molecular target: MR1 C262S loaded with acetyl-6-formylpterin (Ac-6-FP) (UniProt Q95460); assay: SPR, TAPBPR-biotin on streptavidin chip, Ac-6-FP loaded MR1 C262S as analyte
1G4 TCR [6] = assay: flow cytometry; PE tetramer (1 µg/mL) on human T cells transduced with the 1G4 TCR; negative control; no percent sign printed
[7] = molecular target: HLA-A*24:02/hb2m/VYGJVRACL (peptide-loaded) (human); assay: SPR; HLA-A*24:02/[..], 0.1 to 10 µM, over chicken TAPBPR-biotin on a streptavidin chip; kinetic fit
[8] = molecular target: HLA-A*01:01/hb2m/STAPGJLEY (peptide-loaded) (human); assay: cell-based or functional assay
[9] = molecular target: HLA-F*01:01/hb2m/LILRWE(bF)D (human); assay: SPR; HLA-F*01:01/hb2m/LILRWE(bF)D, 0.0625 to 2 µM, over chTAPBPR-biotin on a streptavidin chip; kinetic fit
[10] = molecular target: HLA-A*29:02/hb2m/VFAQVKQJY (peptide-loaded) (human); assay: SPR, TAPBPR-biotin on streptavidin chip, peptide-loaded HLA as analyte
[11] = molecular target: HLA-A*24:02/hb2m/VYGJVRACL (peptide-loaded) (human); assay: as above
[12] = molecular target: peptide-deficient (empty) HLA-A*30:01/hb2m (human); assay: SPR, TAPBPR-biotin on streptavidin chip, UV-irradiated (empty) HLA as analyte
[13] = molecular target: peptide-deficient (empty) HLA-A*11:01/hb2m (human); assay: as above
[14] = molecular target: peptide-deficient (empty) HLA-A*29:02/hb2m (human); assay: as above
[15] = molecular target: peptide-deficient (empty) HLA-A*02:01/hb2m (human); assay: as above
[16] = molecular target: peptide-deficient (empty) HLA-B*08:01/hb2m (human) (UniProt P01889); assay: as above
[17] = molecular target: peptide-deficient (empty) HLA-A*01:01/hb2m (human); assay: as above
[18] = molecular target: peptide-deficient (empty) HLA-G*01:01/hb2m (human); assay: as above
[19] = molecular target: peptide-deficient (empty) HLA-B*37:01/hb2m (human); assay: as above
[20] = molecular target: peptide-deficient (empty) HLA-A*24:02/hb2m (human); assay: as above
[21] = molecular target: peptide-deficient (empty) HLA-A*68:02/hb2m (human); assay: as above
[22] = molecular target: HLA-B*08:01/hb2m/FLRGRAJGL (peptide-loaded) (human)

Work on “Exchanged A2/W5A (NY-ESO-1) (from UniProt A*02:01) (peptide-MHC)” yielded a tet+ (share of events in the tetramer-positive live gate) (1G4 TCR [1]) of 2.18.

For “Exchanged A2/M4A (NY-ESO-1) (from UniProt A*02:01) (peptide-MHC)”, the tet+ (share of events in the tetramer-positive live gate) (1G4 TCR [1]) was 38.7.

For “hTAPBPR^RQ (K211R, R270Q) (from UniProt Q9BX59 22-405)”, the Kd [2] was 49500 nM.

In the case of “NY-ESO-1 (HLA-A*02:01/… tetramer) (peptide-MHC)”, the tet+ (share of events in the tetramer-positive live gate) (1G4 TCR [1]) is reported as 71.4 and the tet+ (share of events in the tetramer-positive live gate) (1G4 TCR [3]) is reported as 78.7.

With “hTAPBPR^KRQ (R105K, K211R, R270Q) (from UniProt Q9BX59 22-405)” the Kd [4] was 62000 nM.

In the case of “human TAPBPR luminal domain (hTAPBPR) (from UniProt Q9BX59 22-405)”, the Kd [5] is reported as 98700 nM.

With “Exchanged S1A (NY-ESO-1) (from UniProt A*02:01) (peptide-MHC)” the tet+ (share of events in the tetramer-positive live gate) (1G4 TCR [1]) was 72.1.

Substance “Refolded Rubella (from UniProt A*02:01) (peptide-MHC)” has a tet+ (share of events in the tetramer-positive live gate) (1G4 TCR [6]) of 0.75.

“chicken TAPBPR luminal domain (chTAPBPR)” was tested, and the Kd [7] was 370 nM, the kapp of fluorescent peptide binding at 5 uM chaperone (FP) [8] was 0.00017 s⁻¹ and the Kd [5] was 19200 nM. For the same substance, the Kd [9] was 760 nM, the Kd [10] was 170 nM and the Kd [11] was 17400 nM. For the same substance, the Kd [12] was 1280 nM, the Kd [13] was 910 nM and the Kd [14] was 290 nM. For the same substance, the Kd [15] was 2960 nM, the Kd [16] was 1890 nM and the Kd [17] was 1460 nM. It also gave a Kd [18] of 11200 nM, a Kd [19] of 2190 nM and a Kd [20] of 1680 nM. It also gave a Kd [21] of 430 nM, a -TΔS [22] of -11.5 kcal/mol and a ΔG [22] of -4.5 kcal/mol. The ΔH [22] was 7 kcal/mol.
